The test system of series [1] is MDA-MB 231, Skov3 and 4T1. The series can be described thus: Tumour cell viability after 72 h co-culture with macrophages carrying doxorubicin packed ferritin. Conditions: ferritin cages filled with doxorubicin 1 mg/ml. Type of series: cell-based. On the procedure:
FIG. 7: Graphs of tumour cell viability after 72 h co-culture with macrophages. The concentration of ferritin cages filled with doxorubicin was the same for each variant of ferritin and was equal to 1 mg/ml.
The doxorubicin packed proteins were inserted into macrophages and then co-cultured with breast and ovarian cancer cell lines: MDA-MB 231, Skov3 and 4T1. The number of viable cells after co-culture was the lowest for the Q11E-Q15E mutant (FIG. 7).

Series [2] can be described thus: Native gel after storage in freezer (-80 degrees Celsius) and thawing. Format: physicochemical. Conditions: ferritin cages with doxorubicin, mutants of b203.
A short description of series [3]: Native PAGE gel after doxorubicin encapsulation and purification. Format: physicochemical. Conditions: after doxorubicin encapsulation; mutants carry added K54E, K72E, K87Q, K144E, C91S, C103S. An excerpt: Native PAGE gel has been performed in order to check the size of the protein after encapsulation and purification.

B1: Q11E-Q15E mutant: Examples 3-8 ferritin variant based on Q11E-Q15E with added K54E, K72E, K87Q, K144E, C91S and C103S (protein, UniProt P02794 1-183, looked up, variant Q11E Q15E K54E K72E K87Q K144E C91S C103S)
Ferritin heavy chain: MTTASTSQVRENYHEDSEAAINRQINLELYASYVYLSMSYYFDRDDVALKNFAEYFLHQSHEEREHAEKLMELQNQRGGRIFLQDIQKPDSDDWESGLNAMESALHLEKNVNQSLLELHKLATDKNDPHLCDFIETHYLNEQVEAIKELGDHVTNLRKMGAPESGLAEYLFDKHTLGDSDNES
modifications: doxorubicin-loaded form also
With B1, the “number of viable cells after co-culture” value in series [1] is recorded as “lowest”. In addition, the “aggregation of cages after storage” value in series [2] is “still present as 24-mers (homogeneous cages) after storage”. Besides, in series [3], the “forms on native gel (aggregates versus 24-mers)” value was “present as 24-mers (homogeneous cages)”.
